Among the data in a protein production outcome set (Wang et al. 2014) are protein production values, retold here.

The series is described as follows: label from the status in PepcDB records.
With “MVQFQNTLIKFHALSFKNANLIYNAKLNKTCYKENSNTIILRIKMLTQEDVLNALKTIIYPNFEKDIVSFGFVKNITLHDDQLGLLIEIPSSSEETSAILRENISKAMQEKGVKALNLDIKTPPKPQAPKPTTKNLAKNIKHVVMISSGKGGVGKSTTSVNLSIALANLNQKVGLLDADVYGPNIPRMMGLQSADVIMDPSGKKLIPLKAFGVSVMSMGLLYDEGQSLIWRGPMLMRAIEQMLSDIIWGDLDVLVVDMPPGTGDAQLTLAQAVPLSAGITVTTPQIVSLDDAKRSLDMFKKLHIPIAGIVENMGSFVCEHCKKESEIFGSNSMSELLEAYHTQILAKLPLEPKVRLGGDRGEPIVISHPNSVSAKIFEKMAQDLSAFLERVKKEKLADNKDIQPTQTHACSH”, the protein production result was “failed”. As for “MKWYTKYLQVYEKPFSEAPQEIVEEVRNKLKLLQSDNPLVTVSLIGYNEEKHLLASLWSLSEMKCKYPIEIIGTDNDSKDQTATIYEATGIPYVIEHQHSCGHARLCGLKRAKGKYHINIDSDTMYPPHYVETMVDALERPGIVAVSSLWSYIPDKEHSWVGLKIYEFIRDIHLWIQSIKRPELSVRGLVFAYRTDYARQVGIRTDIRRGEDGSLALRLKEYGNIYFIRKRKARAITGYGTISADGSLFNSFKVRAIYALKNIGRVFTRKKEYKDEDDNLIKSLEHHHHHH”, the entry is “not failed”.

As for “MDLFLAMRVYVKVVETGSLTAAAQACSISTTMVGNHLRALEQRLGVSLLQRTTRRQRLTEFGTAYYQRCLEVLGLVAQSEQLAEQAQGEPTGTLRITAPLTFGSELLAPALVGFSQRFPDVKLDLVLTNQRLDMIDNGFDVAIRLGNLAQSSPLIARPLQDYTLTICAAPDYLARHSAPTRPEDLRAHNCLAFAYPAGDEWRTAGTQWRMTGPEGEVLVDVDGSMVANTSAGLYQAARAGMGVVMLPDALVQRDLQEGRLVALLPDYHLPRRPMNLLYVQDRYRLPKLRSFVEFATALWGR”, the protein production result is “failed”. As for “MTGVFLPPLPPSLRLQIKTMAESILPNAIRSQSQPQAFVQVEVWIRRLVWKIVIATVLLMAVGSATRVMNAGLACPDWPLCYGQWVPSQQMNLQVFLEWFHRLDAALIGFSTLILVGLSWWFRRVLPKWLPWATLGSLALILVQGLLGGLTVIELLRFDIVTAHLGTAMAFLGSLVIIGLCLMPYQSNQTAGKLRPVALASTTIIYLQCLLGGLVGSQWAAHQCLAIAGTQFCQVLHSHLLGVLPTVLGVGLTFWCTRRTPALNPFLRQLGNGALALLGGQILLGVATLKLHLQIEPLTVAHHTVGICLWATLLAIAVLAVRDHRPTAPITS”, the entry is “failed”. The result for “VFEQELENGLRLFIIPKPGFQKTFVTYTTQFGSLDNQFKPLGQDQFVTVPDGVAHFLEHKLFEKEEEDLFTAFAEDNAQANAFTSFDRTSYLFSATDNIENNIKRLLTMVETPYFTKETVDKEKGIIAEEIKMYQEQPGYKLMFNTLRAMYQRHPIRVDIAGSVESIYDITKDDLYLCYETFYHPSNMVLFVVGDVNPEEICRIVKQH” reads “failed”; that for “MENRAHALAAGLFILLLGVATVMAVKWFSRDSVSYNHYFLVSAGGAVSGLNPEASVRYRGVNVGKVEEIYFDRENIRNIIVRIAVNHNVVLPGDIYAQLASQGITGLTYIELNDDVADAETKPLQNEARIPLRSSLIKTLSDSLEEILKNSNMAIRQISNLLNEQNQTHISSILSHLEQAVQHYDTLTGQLQKGLQTLPQLSSELTSTFKQTRQVMENTSQVLQKLNQQQGLVDNLTQGSLEMTRTLTSLNETGVAITQSAHKLDQLLNLLEDHPQSLVFGKPPALPGPGEPGFSPPQPGK”, “failed”.

Consider “MEMINVFVYGTLRRGGGNHQLIAEYVQSVHEATVKGMLFHLPYGYPAMVDGRGTVRGEILELSNPETALTILDELEGYHGPGQSNEYERITVTAVTADGNKYICYTYVYPEEQREWLEQNAQPIFGGDWMAFLHSKDEVMYFAYGSCMSERDFRRTVPHFEVMGRAVLDDYRLAFTRYSSGRQGGVADIVPSPGDRVEGVLYKISSRYVKDLDWREGVPAGVYRREYIDVQHNGQLVSALTYVVVEKQLDEIAPSESYASIILDEGTSLLSPQYIEQVRRHIETLQKKGR”, for which the protein production entry is listed as “failed”. On to “MNEYFFPKLTAVEALAPYRLRTTWSTGEVLEVDVGDILRKIPDLAPILDPEAFARVHIAEWEGSVEWFDTEFGRDNVYAWAKEQAGEVSHEMFGDWMHRNNLSLTTAAEALGISRRMVSYYRTAHKIIPRTIWLACLGWEATRPETKTLPRTLPAAYAKGVSASLS”, for which the protein production result is “not failed”. “MALELSRLPELLSRIDGYKGQPVTRLAVMLNLLVFIRSSELRYARWSEIDIDNSMWTIPAEREPLPGVKFSHRGSKMRTPHLVPLSKQVVAILAELQTWAGENGLIFTGAHDPRKPISENTVNKALRVMGYDTTQEVCGHGFRAMACSALIESGLWSRDAVERQMSHQERNGVRAAYIHKAEHLEERRLMLQWWADFLDANREKGISPFEYAKINNPLKLEHHHHHH”: the protein production entry is “not failed”. As for “MSEDEAQFHGNYDDYVTYLKRRIRQLELQVRMLEADKERLERELSRLRSEMSRLRQPPAFAGSVIEVLDDDRAIVQNYNGPRFVVRIAPWIDKSKLRPGTRVALDQRTMAIIEILPASKDPAVLGFEVVERPN”, the protein production entry is recorded as “failed”. For “MRELLKVTLIVMLVLINAFFVACEFAMVKLRSSRIDTMITEGNNNAKRCKIIKDNLNSYLSACQLGITLCSLALGWMGESTVKELILPIVSVFNLSESIIYTISISISFLIITMMEVVIGELVPKALALYNTEKIMLSTSFLLVGFYKLTYPIIYFFNLSTDLFLKPFGYSQADEVDEPHTGDEIRLLVEESYKSGLIDESEQRLVDNIFEFEEKKIREIMVPRTDMVCIYESDSEEKILAILKEEGVTRYPVCRKNKDDILGFVHIRDLYNQKINENKIELEEILRDIIYISENLTIDKALERIRKEKLQLAIVVDEYGGTSGVVTIEDILEEIVGEIQDEFDKEETHIKKIGAGSYLVDGTESINYINKYFGLDIEHDGFDSIGGWISYMLGSNIKVNQSVTFENYNFTILELDKLRVVKLIIKSVI”, the protein production entry was “failed”.

Turning to “MKETTIYGRLVMAVKNTAQVVIGGKIITLGGYESEEYFQKVASYINNKIAELSEMPGYTRQPVETKHTLLSLNVTDDYFKAKKQAEIFEQDLQQKDQEMYELKHELIALRMKIEETEKNAQEAQQQKELLEGKVKELNDEIDKLLK”, the protein production result is given as “not failed”.

For the sequence “MAAEHGLILDFTTVLGASALGGYLANRLRQPVLLGYLVTGLALGPYGLKLLSDVPRIQSLASIGVAFLLFALGVEFSLTELRRVKNIAINGSLLQIGLTTALVAFLTITLGWVDNLTQGIFLGVVLSLSSTAVVLKTLGERGETNTLHGQVMLAILIAQDLALGLILAFLPVLNQPERLVWALGIALLKVLLFLALAIALGRWIVPKLISNVAATESTELFVLTVISLCLSVALVTAKLGLSIEMGAFVAGLMVSEIDHADHALAKVLPLRDTFACLFFASIGMLIDPIALMQNLGLVLGLVTLVMLGKAIVVMPIILKFGYSLKTTILTSLGINQIGEFSFVLALAGLQLQLIPEKTYILLLETTAITLVLTPISLNIAPQLIERLTQIPFFAQSLRQFTEPNILSIPETISGHVVVAGYGRVGQVIVNILLNQGYVVLVIENSEAAIQRLRMQRIPYIFGDADSELVLEKIHLETAKALAIALPDPASSRLLLKRALAIAPKLDVIARSHHDNEIDLLTQMGAKEVVQPEFEAALELSAHLLSTLGEAKSQIDTVISDIRTDRYRSIRPRR”, the protein production result was “failed”. “MTAANSERYALRLLGPFELTAPGGRRVEITSKKGIAVVAMLALSRDGARSRGWLQDRLWGSRRKAEAAGSLRRELSNLRKLLNADGAELLLSDRDRVRLRTDLIDIDLFVARSGRANGEFLEGLDISSERGFGEWLREQRDALVPPAQDVVVSAVTAGAGTLPTHIVDISTPPVGFAGRPAIAVLPFANATGDETLDYVAEGIGEELIVGLSRIRWLPVISRNSSFSFTESDDRKLIGQRLGAQYLVEGRLYRAYDSYGVSASLAEAITGYSLWSRRFTLQSPAAHDELVQFVNELVAQLESRIEHAEQIRIRGKRQDKLGVCDLIWRGRWHLNRLTRADSEMAQKLFAEALALDPDSPEALIQATAALAWSIWAGRQPQDQIQRMRKLSQQAMLADPDDGRGFMLAGIAEMWLRHPLEAKNLLRQAITLTPSLALAHAQLGGCFNLAGEPDRAIVQLKTAMRLSSNDPNIFYSLGELALAYTMLGQWPEAIEHATLALARRPAYWYAHVLKINALARIGQLDAARIACDELLAIKPNFSKRFLDWLPFVDRTWVDHFVQGLKMVPGRPSDWPERETHETAA”: the protein production entry is on record as “failed”. As for “NGADVQVSNIDYRLSRKELQQLLQEAFARHGKVKSVELSPHTDYQLKAVVQMENLQDAIGAVNSLHRYKIGSKKILVSLATGA”, the entry is “not failed”. As for “MSIEIWITIIVFFLTMIVIFWRPRGLNEAWPAAIGAGIILITGLVSKPDVIDIVSKIGGASITILATIVMAVILESFGFFHWSAAKLANLAKGSGRRLYWYIQLLCFLMTLLFNNDGSILITTPILILLLKNLQLKPHQQIPYLLSGALIATASSAPIGESNIVNLIALNIVNMTLYMHTAMMFVPATLGLLFMSWLMYSVLKKKLPKKLPVSSYDIEEIFFTKNFHPLKGNNSVDTKQKRTRFMLKVLGFVFLMRCLLFVASFLSIPIEIVAVLGSLVLLIWRWYYLRTNPVDILKKTPWHILIFAFSMYVIIYGLHNAGLTAALVQWLEPIVNQHLLYASFAMGGLVSILSNVFNNHPALMIGTITLTEMGLDPVTLKTIYLANIIGSDIGSLLLPIGTLASLIWMYILKQNKIKVKWKDYLSVSLIVIPLTTVVTLFLLFYWVHLFFAL”, the entry is “failed”; as for “MEKEMEDKEEFDEGEIEYTSYAGEHHLPLIMSLVDQELSEPYSIFTYRYFVYLWPQLCFLAFHKGKCVGTIVCKMGDHRQTFRGYIAMLVVIKPYRGRGIASELVTRAIKAMMESGCEEVTLEAEVSNKGALALYGRLGFIRAKRLYHYYLNGMDAFRLKLLFPKPRVPQIPSQVQTQQEYETFPRPRVP”, “failed”; as for “PKRTAATAGALMIGVAVVSLFTVFGASLKATMDQTVSRSFAGDVAVSAPSFGAGGSGLSPRLAGAIQELPEVDTAVGLGRGVAEVDGQGRALTVTDPAALNRTFDLGAVHGSLDDLGTDGIAITENEADERGLTTGDTTRLTFTDGHSGTFTVRAVYGQSELAGDYVITRAAWAPHRTQDSDTLVAVAFEDGVGADAGKAAVEKVADRYGNPEVQTREEYAESSAGGIDMMLTLVYALLALAVLIALLGISNTLTLAVHERTRELGLLRAVGQTRAQLRAMVRWESVLVAAFGTVGGLGLGAFLGWVLVAASDGASDSAFAFAVPPAQLAVVALVGLAAGALAGVRPARRASRLDVLRAVAT”, “failed”.

Take “MTRIIPFALAVAALATAGAAQASTMVIGGGAAKECSDSALKGRSDKRSVLACTSALELENLNFRDRARTYVNRGVLQMRQKDFGAARSDFDAAGAIDPNLGEVFVNRGAAYVGEERYREGVEQIDKGLALGVKEPEKAWFNRGLANEGLGDLKAAFRDYSRAAELNPDWPAPKLELTRFSVKRP”: the protein production entry is listed as “failed”. For “MATNLIGLDTTQSQKLANALNNLLANYQVFYMNTRGYHWNIQGKEFFELHAKFEEIYTDLQLKIDELAERILTLSARPMHSFSGYLKAAQIKEHTDSIDGRSSMQGLVDGFSILLHQQRDILELAGETGDEGTSALMSDYIREQEKLVWMLNAWLK”, the protein production entry is given as “not failed”.
